Patent publication EP4293046A1 (Shanghai Jemincare Pharmaceuticals Co., Ltd., dated 2023)

Legend:
[1] = biological target: biotin-labeled monkey PD-1 (Acro, Catalog Number: PD1-C82E6) (monkey (cyno)) (UniProt B0LAJ3); test: flow cytometry, yeast-displayed Fab, titration of soluble PD-1
[2] = biological target: biotin-labeled human PD-1 (Acro, Catalog Number: PD1-H82E4) (human) (UniProt Q15116); test: as above
[3] = biological target: T1, monkey PD-1 (Acro, Catalog Number: PD-1-C5223) (monkey, UniProt B0LAJ3 25-170); test: BLI, Octet RED96e, antibody on AHC sensor, PD-1 100 nM
T1 construct: Bought protein; not shown: any purification tag of the vendor's construct (Acro PD-1-C5223)
T1 sequence (B0LAJ3 entry or part of it limits assumed, form in doubt): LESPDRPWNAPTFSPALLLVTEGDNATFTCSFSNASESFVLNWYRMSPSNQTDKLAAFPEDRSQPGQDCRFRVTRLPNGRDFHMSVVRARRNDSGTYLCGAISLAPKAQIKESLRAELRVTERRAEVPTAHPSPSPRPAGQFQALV

[4] = biological target: T2, human PD-1 (Sino Biological, Catalog Number: 10377-H08H) (human, UniProt Q15116 25-167); test: BLI, Octet RED96e
T2 construct: Bought protein
T2 sequence (Q15116 25-167 limits assumed): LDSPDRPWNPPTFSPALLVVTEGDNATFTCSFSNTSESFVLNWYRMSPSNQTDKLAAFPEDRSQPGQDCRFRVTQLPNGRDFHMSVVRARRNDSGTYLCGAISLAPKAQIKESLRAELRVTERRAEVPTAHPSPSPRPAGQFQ

[5] = biological target: T3, human PD-1 (Acro, Catalog Number: PD-1-H5221) (human, UniProt Q15116 25-167); test: BLI, Octet RED96e, antibody on AHC sensor, PD-1 100 nM
T3 construct: Bought protein
T3 sequence (Q15116 25-167 limits assumed): as above

[6] = biological target: T2, human PD-1 (Sino Biological, Catalog …); test: as above
[7] = biological target: T1, monkey PD-1 (Acro, Catalog Number: …); test: BLI, Octet RED96e
[8] = biological target: T3, human PD-1 (Acro, Catalog Number: …); test: BLI, Octet RED96e

biotin-labeled human PD-1 (Acro, Catalog Number: PD1-H82E4) (human), sequence (Q15116 25-167 limits assumed): as above
biotin-labeled monkey PD-1 (Acro, Catalog Number: PD1-C82E6) (monkey (cyno)), sequence (B0LAJ3 entry or part of it limits assumed): as the sequence (B0LAJ3 entry or part of it limits assumed, form in doubt) above

| Binder | Ag50 [1] | Ag50 [2] | Kd [3] | koff [3] | kon [3] | fold higher affinity than Pembrolizumab [4] | Kd [5] | koff [5] | kon [5] | Kd [6] | koff [6] | kon [6] | fold affinity against the parent antibody [7] | fold affinity against the parent antibody [8] |
| --- | --- | --- | --- | --- | --- | --- | --- | --- | --- | --- | --- | --- | --- | --- |
| 41D2HzL4H3 parent sequence displayed on the yeast surface in the form of Fab (Fab, V domains shown) VH: EVQLVESGGGLVKPGGSLRLSCAASGFTFSNYDMSWVRQAPGKGLEWVSTISGGGSYTYYADSVKGRFTISRDNAKNSLYLQMNSLRAEDTAVYYCVSPYYGMEYWGQGTLVTVSS VL: DIQLTQSPSFLSASVGDRVTITCKASQDVGTAVAWYQQKPGKAPKLLIYWASTRHTGVPSRFSGSGSGTEFTLTISSLQPEDFATYFCQQYSSYPWTFGGGTKVEIK | 36.1 nM | 5.08 nM | – | – | – | – | – | – | – | – | – | – | – | – |
| 41D2HzL4H3 (antibody, V domains shown, Humanized antibody; the description mentions human IgG4 S228P and kappa; also called parent antibody; humanized antibody of 41D2-2C3D7) VH: EVQLVESGGGLVKPGGSLRLSCAASGFTFSNYDMSWVRQAPGKGLEWVSTISGGGSYTYYADSVKGRFTISRDNAKNSLYLQMNSLRAEDTAVYYCVSPYYGMEYWGQGTLVTVSS VL: DIQLTQSPSFLSASVGDRVTITCKASQDVGTAVAWYQQKPGKAPKLLIYWASTRHTGVPSRFSGSGSGTEFTLTISSLQPEDFATYFCQQYSSYPWTFGGGTKVEIK | – | – | 5.2 nM | 0.00153 s⁻¹ | 295000 M⁻¹ s⁻¹ | 4.2 times | 1.27 nM | 0.000589 s⁻¹ | 464000 M⁻¹ s⁻¹ | 1.92 nM | 0.000542 s⁻¹ | 283000 M⁻¹ s⁻¹ | – | – |
| Ab2005Am08 (antibody, V domains shown, also called clone YC215H3 as IgG) VH: EVQLVESGGGLVKPGGSLRLSCAASGFTFSNYDMSWVRQAPGKGLEWVSTISGGGRYTYYADSVKGRFTISRDNAKNSLYLQMNSLRAEDTAVYYCVSPYYGMEYWGQGTLVTVSS VL: DIQLTQSPSFLSASVGDRVTITCKASQDVGTAVAWYQQKPGKAPKLLIYWASTRHTGVPSRFSGSGSGTEFTLTISSLQPEDFATYFCQQYSSYPWTFGGGTKVEIK | 2.42 nM | 1.26 nM | 1.52 nM | 0.000486 s⁻¹ | 320000 M⁻¹ s⁻¹ | – | 0.504 nM | 0.00023 s⁻¹ | 457000 M⁻¹ s⁻¹ | – | – | – | ~2 times | ~2 times |
| 1910h3hzL3H4 (antibody, V domains shown, Humanized antibody; the description mentions human IgG4 S228P and kappa; also called humanized antibody of 46H3A8; 1910h3hzL3 light chain + 1910h3hzH4 heavy chain) VH: QVQLVQSGAEVKKPGASVKVSCKASGFTFIDYEMHWVRQAPGQGLEWIGGIHPGSGGTAYNQKFKGRATLTADISISTAYMELSRLRSDDTAVYYCTREGFDVGWYFDVWGQGTTVTVSS VL: DVVMTQSPLSLPVTLGQPASISCRSSQSIVHSDGDTFLEWYQQRPGQSPRLLIYKVSNRFSGVPDRFSGSGSGTDFTLKISRVEAEDVGVYYCFQGSHVPYTFGQGTKLEIK | – | – | – | – | – | – | – | – | – | 8.04 nM | 0.00118 s⁻¹ | 147000 M⁻¹ s⁻¹ | – | – |
